Test results as given in PMC12337344.
Blank lines part the entries; values can stand above or below the substance they belong to.

Legend:
[1] = target: G2L4 RT (Pseudomonas aeruginosa group II intron-like reverse transcriptase), full-length, as crystallised (Pseudomonas aeruginosa); assay: SEC; size-exclusion chromatography comparing G2L4 RT to GII RT (SI Appendix, Fig. S1A)
[2] = target: G2L4 RT Thumb mutant (R397A, R398A, R404A) (Pseudomonas aeruginosa); assay: native gel or EMSA; nondenaturing gel of WT and mutant G2L4 RT proteins; proportions running as monomer or dimer (SI Appendix, Fig. S10C)
[3] = target: G2L4 RT with deletion of C-terminal residues 401 to 411 (Pseudomonas aeruginosa); assay: not stated; dimer state of G2L4 RT after removal of the MBP tag and after deletion of residues 401 to 411 (SI Appendix, Fig. S10 A and B)
[4] = target: MBP-tagged G2L4 RT R190E/I202E (Pseudomonas aeruginosa); assay: SEC; gel filtration profiles of MBP-tagged WT and RT3a mutant G2L4 RTs (SI Appendix, Fig. S4 A and B)
[5] = target: G2L4 RT with an A instead of an I at the active site (Pseudomonas aeruginosa); assay: native gel or EMSA; nondenaturing gel of WT and mutant G2L4 RT proteins; proportions running as monomer or dimer (SI Appendix, Fig. S10C)
[6] = target: MBP-tagged wild-type G2L4 RT (Pseudomonas aeruginosa); assay: as above
[7] = target: MBP-tagged wild-type G2L4 RT (Pseudomonas aeruginosa); assay: SEC; gel filtration profiles of MBP-tagged WT and RT3a mutant G2L4 RTs (SI Appendix, Fig. S4 A and B)
[8] = target: MBP-tagged G2L4 RT R191E/I202E (Pseudomonas aeruginosa); assay: as above
[9] = target: G2L4 RT NTE + Thumb mutant (R12A, Y15A, R398A) (Pseudomonas aeruginosa); assay: native gel or EMSA; nondenaturing gel of WT and mutant G2L4 RT proteins; proportions running as monomer or dimer (SI Appendix, Fig. S10C)
[10] = target: G2L4 RT without the N-terminal MBP tag (Pseudomonas aeruginosa); assay: not stated; dimer state of G2L4 RT after removal of the MBP tag and after deletion of residues 401 to 411 (SI Appendix, Fig. S10 A and B)
[11] = target: G2L4 RT NTE mutant (R12A, Y15A, R19A) (Pseudomonas aeruginosa); assay: native gel or EMSA; nondenaturing gel of WT and mutant G2L4 RT proteins; proportions running as monomer or dimer (SI Appendix, Fig. S10C)
[12] = target: MBP-tagged G2L4 RT R190E/R191E (Pseudomonas aeruginosa); assay: SEC; gel filtration profiles of MBP-tagged WT and RT3a mutant G2L4 RTs (SI Appendix, Fig. S4 A and B)

stoichiometry N [1]: 2
Substance: G2L4 RT (Pseudomonas aeruginosa group II intron-like reverse transcriptase), full-length, as crystallised (enzyme)

Substance: G2L4 RT Thumb mutant (R397A, R398A, R404A) (enzyme)
percent of the protein running as monomers [2]: 35%

Substance: G2L4 RT with deletion of C-terminal residues 401 to 411 (domain or fragment)
stoichiometry N [3]: 2

Substance: MBP-tagged G2L4 RT R190E/I202E (enzyme)
stoichiometry N [4]: 2

Substance: G2L4 RT with an A instead of an I at the active site (enzyme)
percent of the protein running as monomers [5]: < 7%

percent of the protein running as monomers [6]: < 7% | stoichiometry N [7]: 2
Substance: MBP-tagged wild-type G2L4 RT (enzyme)

Substance: MBP-tagged G2L4 RT R191E/I202E (enzyme)
stoichiometry N [8]: 2

Substance: G2L4 RT NTE + Thumb mutant (R12A, Y15A, R398A) (enzyme)
percent of the protein running as monomers [9]: 54%

stoichiometry N [10]: 2
Substance: G2L4 RT without the N-terminal MBP tag (enzyme)

Substance: G2L4 RT NTE mutant (R12A, Y15A, R19A) (enzyme)
percent of the protein running as monomers [11]: 12%

Substance: MBP-tagged G2L4 RT R190E/R191E (enzyme)
stoichiometry N [12]: 2
